From patent publication US20210361653A1 (MAYO FOUNDATION FOR MEDICAL EDUCATION AND RESEARCH, published 2021)

What was measured:
[1] = target: T1, BRD3 SBC motif-deleted mutant (human, UniProt Q15059 1-726, limits assumed); assay: co-IP with anti-FLAG antibody, 293T cells
T1 construct: Deletion mutant; also called FLAG-BRD3 mutant; not shown: FLAG tag

[2] = target: T2, BRD4 SBC motif-deleted mutant (human, UniProt O60885 1-1362, limits assumed); assay: co-IP with anti-FLAG antibody, 293T cells
T2 construct: Deletion mutant; also called FLAG-BRD4 mutant; not shown: FLAG tag

[3] = target: T3, BRD2 SBC motif-deleted mutant (human, UniProt P25440 1-801, limits assumed); assay: co-IP with anti-FLAG antibody, 293T cells
T3 construct: Deletion mutant; also called FLAG-BRD2 mutant; not shown: FLAG tag

BRD2 = target: T4, BRD2 (human, UniProt P25440 1-801); assay: co-immunoprecipitation, 293T (ectopic) and LNCaP (endogenous) cells
T4 construct: also called bromodomain containing 2; FLAG-BRD2
Procedure: (§1) To immunoprecipitate the ectopically expressed FLAG-tagged proteins, transfected cells were lysed 24 hours post-transfection in BC100 buffer. The whole-cell lysates were immunoprecipitated with the monoclonal anti-FLAG antibody-conjugated M2 agarose beads (Sigma-Aldrich) at 4° C. overnight. After three washes with lysis buffer, followed by two washes with BC100 buffer, the bound proteins were eluted using FLAG-Peptide (Sigma-Aldrich) prepared in BC100 for 3 hours at 4° C. The eluted protein sample was resolved by SDS-PAGE. To immunoprecipitate the endogenous proteins, cells were lysed with 1× cell lysis buffer (Cell Signaling Technology), and the lysate was centrifuged. The supernatant was precleared with protein AIG beads (Sigma-Aldrich) and incubated with the indicated antibody and protein A/G beads at 4° C. overnight. Beads were washed five times with lysis buffer and resuspended in sample buffer and analyzed by SDS-PAGE.
(§2) To identify new degradation substrates of SPOP, yeast two-hybrid screens using the full-length SPOP as bait were performed.

BRD3 = target: T5, BRD3 (human, UniProt Q15059 1-726); assay: as above
T5 construct: also called bromodomain containing 3; FLAG-BRD3
Procedure: as §1, §2

binding result [1]: no binding
binding result [2]: no binding
binding result [3]: no binding
binding result (BRD2): binds
binding result (BRD3): binds
B1: SPOP, wild-type (other, human, UniProt O43791 1-374, looked up)
chain: MSRVPSPPPPAEMSSGPVAESWCYTQIKVVKFSYMWTINNFSFCREEMGEVIKSSTFSSGANDKLKWCLRVNPKGLDEESKDYLSLYLLLVSCPKSEVRAKFKFSILNAKGEETKAMESQRAYRFVQGKDWGFKKFIRRDFLLDEANGLLPDDKLTLFCEVSVVQDSVNISGQNTMNMVKVPECRLADELGGLWENSRFTDCCLCVAGQEFQAHKAILAARSPVFSAMFEHEMEESKKNRVEINDVEPEVFKEMMCFIYTGKAPNLDKMADDLLAAADKYALERLKVMCEDALCSNLSVENAAEILILADLHSADQLKTQAVDFINYHASDVLETSGWKSMVVSHPHLVAEAYRSLASAQCPFLGPPRKRLKQS
notes: also called SPOP-WT; Myc-SPOP
